From patent US20240238445A1, “INHIBITORS AND USES THEREOF” (NEURACLE SCIENCE CO., LTD., priority 2021, published 2024)

Columns and labels:
[1] = target: binding of FAM19A5 protein to LRRC4B (amino acids 453-576)-hFc (Homo sapiens, UniProt Q7Z5A7); test: Competitive inhibition assay, plate coated with LRRC4B (amino acids 453-576)-hFc, peptides at 20 nM
Text: Next, to assess whether polypeptides comprising the binding domains of LRRC4 or LRRC4C proteins can have similar inhibitory effects on LRRC4B protein binding, the following synthetic peptides were constructed: (1) FBC4-23 (contains the binding domain of the LRRC4 protein, i.e., YSFFTTVTVETTE); and (2) FBC4C-23 (contains the binding domain of the LRRC4C protein, i.e., FSYFSTVTVETME). Then, the ability of the peptides to inhibit the binding of LRRC4 protein family members to FAM19A5 protein was assessed using a competitive inhibition assay. Briefly, plates were coated with 100 nM of either LRRC4B protein fragment #1 (amino acids 36-576 of SEQ ID NO: 2; SEQ ID NO: 5) or LRRC4B protein fragment #2 (amino acids 453-576 of SEQ ID NO: 2; SEQ ID NO: 7). Then, recombinant FAM19A5 protein (5 ng/ml for plates coated with LRRC4B fragment #1; and 1 ng/mL for plates coated with LRRC4B fragment #2) was added to the plates in combination with 20 nM of the FBC4-23, FBC4C-23, and FB-20 peptides. The plates were incubated at 37° C. and then, the amount of FAM19A5 protein bound to the coated LRRC4B protein fragments was assessed using HRP-conjugated anti-FAM19A5 (1-65) antibody.
Next, to determine the minimal sequence required to inhibit the interaction of FAM19A5 and members of the LRRC4 protein family, ten FB-20 peptide variants were constructed by serially deleting one or more amino acids from the N-terminus or C-terminus of the FB-20 peptide. Then, a competitive inhibition assay was used to assess the ability of the different FB-20 peptide variants to inhibit the interaction between FAM19A5 and LRRC4B protein. Again, plates were coated with 100 nM of either LRRC4B protein fragment #1 (amino acids 36-576 of SEQ ID NO: 2; SEQ ID NO: 5) or LRRC4B protein fragment #2 (amino acids 453-576 of SEQ ID NO: 2; SEQ ID NO: 7). Then, recombinant FAM19A5 protein (5 ng/ml for plates coated with LRRC4B fragment #1; and 1 ng/mL for plates coated with LRRC4B fragment #2) was added to the plates in combination with 20 nM of the different peptides described above. After incubating the plates at 37° C., the amount of FAM19A5 protein bound to the coated LRRC4B protein fragments was assessed using HRP-conjugated anti-FAM19A5 (1-65) antibody.
To identify the critical amino acid residues, multiple FB-20 peptide mutants were constructed, in which the individual residues of the core binding domain (i.e., YTYFTTVTVETLE; SEQ ID NO: 15) were substituted with alanine (A) or asparagine (N). Then, the ability of these FB-20 peptide mutants to inhibit the interaction between LRRC4B and FAM19A5 proteins was assessed, as described in Examples 3 and 4.

[2] = target: binding of FAM19A5 protein to full-length ectodomain of LRRC4C protein (Homo sapiens, UniProt Q7Z5A7); test: Competitive inhibition assay, plate coated with full-length ectodomain of LRRC4C; conditions: FAM19A5 5 ng/mL; 100 nM/well coat
Description: As described in Example 3, there appeared to be much similarity in the binding domains of the different members of the LRRC4 family. […] Then, recombinant FAM19A5 protein (5 ng/mL) was added in combination with one of the following: (i) LRRC4B (484-576) protein fragment, (ii) LRRC4B (453-576, AA) protein fragment, and (iii) synthetic FB-20 peptide. The plates were incubated at 37° C., and then, the amount of FAM19A5 protein bound to the coated LRRC4, LRRC4B, or LRRC4C proteins was measured using anti-FAM19A5 (1-65) antibody.

[3] = system: mouse primary hippocampal neurons; test: Synaptic marker (SYP, PSD95) expression in mouse primary hippocampal neurons; type: cell-based; conditions: 6 or 60 nM
Description: Next, it is generally known that neurites that outgrow from other neurites are capable of differentiating into axons, forming presynapses. Other neurites remain minor neurites and differentiate into dendrites, forming postsynapses. Therefore, whether the LRRC4B (453-576) protein fragment can also affect pre- and post-synaptic formation was also assessed. Briefly, mouse primary hippocampal neurons were cultured in vitro with the LRRC4B (453-576) protein fragment (6 or 60 nM). Control cells were treated with either DMSO (“Veh”) or the mutant LRRC4B (453-576) protein fragment which is not capable of binding to FAM19A5 protein (comprises alanine substitutions at positions 488 and 489). Then, at days 3 and 6 post initial culture, the expression level of synaptophysin (SYP; a presynaptic marker) was assessed. At day 7 post initial culture, the expression level of postsynaptic density 95 (PSD95; a postsynaptic marker) was assessed.
Primary hippocampal neurons were prepared from postnatal pups (postnatal day 1) of C57BL/6 (Nara Biotech, Seoul, Korea) as previously described by Beaudoin et al., Nature protocols 7(9): 1741-1754 (2012), which is incorporated herein by reference in its entirety. Briefly, cortices were dissected in Hank's buffered salt solution (HBSS) (Invitrogen, Carlsbad, CA, USA) and digested with 2.5% trypsin for 15 min at 37° C. […]

Chain of binding of FAM19A5 protein to LRRC4B (amino acids 453-576)-hFc (Q7Z5A7 44-132): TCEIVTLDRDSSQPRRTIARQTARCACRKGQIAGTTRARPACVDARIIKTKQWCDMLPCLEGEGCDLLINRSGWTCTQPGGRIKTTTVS
Chain of binding of FAM19A5 protein to full-length ectodomain of LRRC4C protein (Q7Z5A7 44-132): as above

Molecule | Inhibition rate (%) LRRC4B (amino acids 453-576)-hFc ([1]; Table 8, 20 nM peptide, FAM19A5 1 ng/mL) [%] | Inhibition rate (%) LRRC4B (amino acids 453-576)-hFc ([1]; Table 9, deletion variants, 20 nM peptide, FAM19A5 1 ng/mL) [%] | Inhibition rate (%) LRRC4B (amino acids 453-576)-hFc ([1]; Table 10, alanine/asparagine mutants) [%] | inhibition of FAM19A5 binding to coated LRRC4C protein (in words) [2] | SYP and PSD95 expression [3] | number of puncta colabeled with SYP and PSD95 [3]
GYTYFTTVTVETLETQPGEE [FB-20] | 63.2 | 62.0 | 63.2 | able to inhibit FAM19A5 protein from binding |  | 
LRRC4B (453-576): LRRC4B ectodomain fragment, amino acids 453-576 of SEQ ID NO: 2; FLAG-tagged or hFc-fused (protein, FLAG tag or human Fc, FLAG-tagged or hFc-fused) VSAVDPVAAGGTGSGGGGPGGSGGVGGGSGGYTYFTTVTVETLETQPGEEALQPRGTEKEPPGPTTDGVWGGGRPGDAAGPASSSTTAPAPRSSRPTEKAFTVPITDVTENALKDLDDVMKTTK |  |  |  |  | increased both SYP and PSD95 expression | increased number of puncta that were colabeled with SYP and PSD95
